Results published in patent publication US20230285589A1, “LIPOSOME COMPLEX FOR CANCER TREATMENT, COMPRISING NOVEL CD47 BINDER AND POLYNUCLEOTIDE” (priority 2020, published 2023).

Target: recombinant CD47 protein (Homo sapiens, UniProt Q08722)
Experiment: SPR, CD47 conjugated to CM5 chip
Details: 250 RU CD47, 1:1 binding model
Protocol: Specifically, the recombinant CD47 protein was conjugated to the surface of the CM5 chip by a target SPR reaction of 250 RU through an EDC-NHS reaction to be used, and for HBS-P, the sensogram obtained through a process of association for 3 minutes and dissociation for 10 minutes at a flow rate of 30 μL/minutes was analyzed with the BiaEvaluation software using a 1:1 binding model and global fitting.

Sequence of recombinant CD47 protein (Q08722 19-323): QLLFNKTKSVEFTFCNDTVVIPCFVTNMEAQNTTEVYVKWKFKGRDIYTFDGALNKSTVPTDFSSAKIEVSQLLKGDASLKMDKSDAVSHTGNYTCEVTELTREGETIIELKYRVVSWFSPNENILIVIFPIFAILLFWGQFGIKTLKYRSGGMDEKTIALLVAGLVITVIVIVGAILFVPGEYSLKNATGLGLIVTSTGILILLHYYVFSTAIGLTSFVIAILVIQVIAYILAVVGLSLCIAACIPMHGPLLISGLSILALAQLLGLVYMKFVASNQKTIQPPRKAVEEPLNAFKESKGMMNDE

Question: What does the source list for “Sirpα: pure Sirpa (SEQ ID NO: 25), water-soluble domain of the original CD47 ligand”?
Answer: ka: 610000 M⁻¹ s⁻¹; kd: 0.37 s⁻¹; Kd (listed as Sirpa(wt)): 280 nM
